Test results: paper PMC4937785 (Plant and Cell Physiology, 2016)
Values joined by “and” are separate entries in the source; they are usually repeats but may differ in a detail not shown here. Equal entries are not always repeated.

B1: Flavodiiron protein Flv3 (sll0550) in Synechocystis sp. PCC 6803 (natural protein, UniProt Q55393 1-573, looked up)
chain: MFTTPLPPQKRLSTQTEAIAKNITAIRSLDWDRDRFDIEFGLQNGTTYNSYLIQADKVALVDSSHEKFRQLYLDLLQGLIDPQRIDYLIVSHTEPDHSGLVKDILQLNPRITVVATKVALQFLDNFVHQPFERIQVKSGDRLDLGQGHDLEFVSAPNLHWPDTMLTYDPATEILFTCDVFGMHYCSDAVFDIDLGKIAPDYQFYYDCLMGPNARSVLAAMKRMDNLGTISTVANGHGPLLRHNVGELLHRYRHWSESQSKAEKTVVVFYVADYGYGDRLSQAIAKGITKTGVGVDMVDLSSADPQEIQELVGHASGVVLGMPPLQANADLSTNFGAVLAAMQPKQVFGLYESYGGDDEPIDPLRTKFLDLGLREAFKVIKVKDTPSESTYQLCDESGTDLGQNLIQAAKIKQLKSLDSDLEKAIGRISGGLYIITAQKGEVKGAMLASWVSQASFNPPGFTVAVAKDRAIESLMQVGDRFVLNILEEGNYQILMKHFLKRFPPGADRFAGVKTQTASNGSPILTDALAYLECEVASRMECSDHWIVYSQVTNGRVAKAEGLTAVHHRKVGNYY
B2: His-tagged Flv3 expressed in Escherichia coli (natural protein, Synechocystis sp. PCC 6803, UniProt Q55393 1-573, looked up)
chain: B1 chain

Legend:
[1] = target: the molecule itself; assay: native gel or EMSA
[2] = target: the molecule itself; assay: SEC

Row | Protein | stoichiometry N [1] | stoichiometry N [2]
1 | B1 | 2 | 
2 | B2 |  | 2 and 4
